One molecule from patent US20040002127A1 (CHISSO, published 2004) can be followed below.

For the experiment, the target named is T1, 35 kDa protein of Oplophorus luciferase (native, purified from Oplophorus gracilirostris) (Oplophorus gracilirostris, UniProt Q9GV46 40-359).
T1 sequence: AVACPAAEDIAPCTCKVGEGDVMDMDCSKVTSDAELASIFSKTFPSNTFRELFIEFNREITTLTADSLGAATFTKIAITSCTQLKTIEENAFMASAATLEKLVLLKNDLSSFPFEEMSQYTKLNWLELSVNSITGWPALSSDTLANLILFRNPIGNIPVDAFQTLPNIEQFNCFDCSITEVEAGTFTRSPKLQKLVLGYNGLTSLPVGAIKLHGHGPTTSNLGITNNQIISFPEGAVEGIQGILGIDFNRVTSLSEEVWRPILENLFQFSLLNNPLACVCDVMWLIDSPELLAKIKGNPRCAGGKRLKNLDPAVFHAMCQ
As to the kind of experiment: gel filtration of native luciferase (about 106 kDa) against SDS-PAGE and SDS gel filtration HPLC (35 kDa and 19 kDa components). The method, then: The deep-sea luminous shrimp (Oplophorus gracilirostris) obtained in the Suruga Bay, Shizuoka, Japan were used as a starting material. A crude extract containing Oplophorus luciferase was prepared in the same manner as disclosed by Shimomura, et al., in Biochemistry 17 (1978) and further purified by chromatography in two steps. The first step was by hydrophobic interaction chromatography on a column of butyl Sepharose 4 Fast Flow (Pharmacia; 0.7 cm×3.5 cm) using 20 mM Tris-HCl, pH 8.5, eluting with decreasing concentrations of ammonium sulfate starting at 1.5 M. The second step was by gel filtration on a column of Superdex 200 Prep (Pharmacia; 1 cm×48 cm) in 20 mM Tris-HCl, pH 8.5, containing 50 mM NaCl. The molecular weight of Oplophorus luciferase was estimated to be about 106 kDa by gel filtration on the same column when compared with the molecular weight markers as follows: (a) amylase (200 kDa); (b) alcohol dehydrogenase (150 kDa); (c) bovine serum albumin (67 kDa); (d) ovalbumin (45 kDa); (e) carbonic anhydrase (29 kDa); and (f) ribonuclease (13.7 kDa).
SDS-PAGE analysis (12% polyacrylamide gel) of the purified samples gave two major protein bands corresponding to molecular weights of 35 kDa and 19 kDa, respectively. […]
In general terms: SEC sorts molecules by how far they enter the pores of the column.

B1: 19 kDa protein of Oplophorus luciferase (native, purified from Oplophorus gracilirostris) (enzyme)
chain: FTLADFVGDWQQTAGYNQDQVLEQGGLSSLFQALGVSVTPIQKVVLSGENGLKADIHVIIPYEGLSGFQMGLIEMIFKVVYPVDDHHFKIILHYGTLVIDGVTPNMIDYFGRPYPGIAVFDGKQITVTGTLWNGNKIYDERLINPDGSLLFRVTINGVTGWRLCENILA
notes: also called 19 kDa photoprotein
For the molecule B1, the binding result is “binds”.
